# Measured values reported in patent US20200299380A1 (published 2020).
# T1: recombinant human MICA extracellular domain recombinant-Fc protein (MICA*019 allele, R&D Systems) (human, UniProt Q29983 24-297)
# T1 construct: also called MICA*019-Fc; MICA-Fc; not shown: Fc of the bought fusion protein
# T1 chain: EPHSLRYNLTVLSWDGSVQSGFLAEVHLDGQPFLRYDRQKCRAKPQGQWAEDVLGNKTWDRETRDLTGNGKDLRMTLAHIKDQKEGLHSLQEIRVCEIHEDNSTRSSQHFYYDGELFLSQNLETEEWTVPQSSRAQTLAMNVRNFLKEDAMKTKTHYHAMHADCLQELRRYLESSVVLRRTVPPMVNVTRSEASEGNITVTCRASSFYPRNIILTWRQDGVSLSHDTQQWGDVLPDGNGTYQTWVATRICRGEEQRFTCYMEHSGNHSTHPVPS
# B1: CHG1-M-MIA-16A8 (antibody, V domains shown)
# VH: EVQLVESGGGLVKPGGSLKLSCAASGFTFSRYAMSWVRQTPEKRLEWVATIFSGGSYTYYPDSVKGRFTISRDNANNTLYLQMSSLKAEDTAMYFCARPNWERTFDYWGQGTTLTVSS
# VL: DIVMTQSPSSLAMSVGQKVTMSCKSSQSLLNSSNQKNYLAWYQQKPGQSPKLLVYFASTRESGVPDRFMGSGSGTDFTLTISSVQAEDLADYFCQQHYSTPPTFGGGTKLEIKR
# notes: also called CHG1-M-MIA2-16A8; chimeric anti-MICA 16A8
# Target: T1, recombinant human MICA extracellular …
# Assay: SPR solution competition experiment (MICA*019-Fc pre-incubated with antibody, NKG2D-Fc chip)
# Description: SPR measurements were performed on a Biacore T100 apparatus (Biacore GE Healthcare) at 25° C. In all Biacore experiments HBS-EP+ buffer (Biacore GE Healthcare) served as running buffer, 10 mM NaOH, 500 mM NaCl served as regeneration buffer and sensorgrams were analyzed with Biaevaluation 4.1 and Biacore T100 Evaluation software.
# For solution competition experiments, the human NKG2D-Fc (R&D systems) recombinant proteins were covalently immobilized onto a CM5 sensorchip. Soluble human MICA*01-BirA or human MICA*019-Fc (R&D systems) recombinant proteins at a constant concentration of 10 μg/ml were pre-incubated with a 5 to 10 molar equivalent excess of antibodies and injected for 2 minutes at a flow rate of 10 μl/min onto the NKG2D-Fc chip. After each cycle, Sensorchips were regenerated by a five second injection of appropriate regeneration buffer.
binder,measurement,value
B1,binding result,no binding
